Results: PMC9857240

Target: His6-GFP-nCLU
Test: AlphaScreen or HTRF; 30 nM His6-GFP fusion protein with 0-60 nM biotinylated GST-IPO13; triplicates, sigmoidal association curves

B1: biotinylated GST-IPO13 (natural protein)
chain: MERREEQLGAAGAGAAPALDFTVENVEKALHQLYYDPNIDNKNLAQKWLMQAQVSPQAWHFSWQLLQPDKVPEIQYFGASALHIKISRYWSDIPTDQYESLKAQLFTQITRFASGSKIVLTRLCVALASLALSMMPDAWPCAVADMVRLFQAEDSPVDSQGRCLALLELLTVLPEEFQTSRLPQYRKGLVRTSLAVECGTVFPLLEQLLQQPSSPSCVRQKVLKCFSSWVQLEVPLQDCEALIQAAFAALQDSELFDSSVEAIVNAISQPDAQRYVNTLLKLIPLVLGLQEQLRQAVQNGDMETSHGICRIAVALGENHSRALLDQVEHWQSFLALVNMIMFCTGIPGHYPVNETTSSLTLTFWYTLQDDILSFEAEKQAVYQQVYRPVYFQLVDVLLHKAQFPSDEEYGFWSSDEKEQFRIYRVDISDTLMYVYEMLGAELLSNLYDKLGRLLTSSEEPYSWQHTEALLYGFQSIAETIDVNYSDVVPGLIGLIPRISISNVQLADTVMFTIGALSEWLADHPVMINSVLPLVLHALGNPELSVSSVSTLKKICRECKYDLPPYAANIVAVSQDVLMKQIHKTSQCMWLMQALGFLLSALQVEEILKNLHSLISPYIQQLEKLAEEIPNPSNKLAIVHILGLLSNLFTTLDVSHHEDDHEGPELRKLPVPQGPNPVVVVLQQVFQLIQKVLSKWLNDAQVVEAVCAIFEKSVKTLLDDFAPMVPQLCEMLGRMYSTVPQASALDLTRQLVHIFAHEPAHFPPIEALFLLVTSVTLSLFQQGPRDHPDIVDSFMQLLAQALKRKPDLFLCERLDVKAVFQCAVLALKFPEAPTVKASCGFFTELLPRCGEIESVGKVVQEDGRMLLIAVLEAIGGQASRSLMDCFADILFALNKHCFSLLSMWIKEALQPPGFPSARLSPEQKDTFSQQILRERVNKRRVKEMVKEFTLLCRGLHGTDYTADY
modifications: biotinylated
Work on B1 yielded a Kd of 2.8 nM.
